B1: ATL3 (parent)
chain: EKALASILLQDHIRDLDVVVVSVA
B2: INTS4 (parent)
chain: AKQIMEETYKMEFMYSGVENKQVV

Variants of: B1
Assay: protein stability index of a GFP-peptide fusion (GPS, HEK-293T) (PSI 1-6); higher = more stable
Details: c terminus: a fixed tail appended
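Further: lentivirally expressed fusions sorted by FACS into six bins by GFP to DsRed ratio, PSI derived from sequencing read proportions per bin multiplied by bin number.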

Protein stability index of substitutions, site by site:
L8: Q 2.63, A 2.99, T 1.55, W 3.89, N 1.04, I 2.89, G 2.62, P 2.34, K 1.14, E 1.98
V18: Q 1.59, K 2.27, N 2, H 1.06, P 2.34, I 2.02, T 3.46, D 2.74, Y 3.61, C 1.66, E 2.48
V19: D 3.81, S 2.01, R 2.19, C 4.35, A 1.64, K 1.96, G 2.25, P 2.52, Q 1.42, H 2.29, N 1.72
L16: N 1.46, Q 1.37, D 1.67, P 1.57, A 1.31, R 1.03, K 1.23, S 2.37
L9: K 3.25, M 2.46, H 2.71, P 1.61, E 3.11
H12: L 2.48, P 2.97, T 2.26, E 2.17, I 3.19, G 4.08
V20: H 2.18, P 3.2, A 1.58, L 3.35, R 2.2, W 3.67, T 1.89, N 3.1, Y 2.34, E 2.89, D 2.79, M 1.82, Q 2.1, K 2.79
R14: D 2.15, F 3.13, P 1.55, T 1.49, K 3.11, N 3.67, W 3.58, L 3.36
S22: H 1.84, D 2.35, E 2.86, L 2.02, R 2.97, P 1.91, G 1.07
D15: W 2.5, I 2.33, V 2.55
D11: P 3.03, E 3.13, G 3.66, K 3.25
D17: Y 3.45, M 2.05, P 2.93, I 1.36, A 3.11, Q 1.93
I13: D 3.12, Y 3.9, T 3.04, S 1.26
I7: T 2.13, Y 2.15, R 2.08, S 2.85
V23: L 2.76, A 2.21, S 3.22, P 2.45, D 3.01, G 3.31, H 1.19, F 3.83, R 1.41, K 2.38, Q 1.96, N 2.32
V21: S 1.81, P 2.56, C 2.07, R 3.63, T 1.62, I 2.63, Y 1.75, H 1.51, D 3.39, Q 2.6, N 2.16, A 1.16
Q10: Y 3.47, N 2.98, S 2.87
A24: N 2.01, C 4.82, G 2.39, P 2.53, M 1.8

Variants of: B2
Assay: as above
Details: c terminus: a fixed tail appended

Protein stability index of substitutions, site by site:
M11: W 2.22, K 3.44, C 2.43, H 3.56, N 3.98, P 3.85, E 3.9, F 2.26, S 2.37, Q 3.2, I 3.35, V 1.9, R 3.42, A 1.42, G 3.28, D 4.33, Y 2.68, T 2.9
K2: H 3.23, R 1.4, D 3.15, T 2.54, W 3.22, V 2.04, E 3.43, A 1.89, F 2.51, N 3.62, G 3.06, L 2.62, I 2.81, S 2.44, P 2.62, Y 1.87

Reference: the supplement of paper PMC10567573
